{"source": "the nanobody polyreactivity screen of Harvey et al. (2022)", "data": [{"experiment": "yeast display, Sf9 membrane polyspecificity reagent, FACS + sequencing; frameworks hold sequencing errors", "how_it_was_run": "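Galactose-induced (36–48 hours) yeast carrying a synthetic nanobody display library were exposed to 10% biotinylated, detergent-solubilized Sf9 membrane reagent at 4 °C for 1 hour. FACS followed streptavidin microbead enrichment, using low and high (top ~1%) gates for expression (anti-HA) and reagent binding (streptavidin). Colony PCR, MiSeq 2 × 250 sequencing and CDR-length filtering followed. Labels for polyreactivity reflect the gate of origin.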", "values": [{"sequence": "QVQIVESGGGLVQAGGSLRLSCAASGRIFWAYAMGWYRQAPGKERELVAAITSGGSTYYADSVKGRFTISRDNAKNTVYLQMNRLKPDDTAVYYCAVGSNWVDDSPEDEYWGQGTQVTVSS", "polyreactivity (PSR sort gate)": "low polyreactivity"}, {"sequence": "QVQIVESGGGLVQAGGSLRLSCAASGRIIKGYAMGWYRQAPGKDMELVADISEDGGSTYYADSVKGRFTISRDNAKNTVYLQMNSLKTEDTAVYFCAAEYYVVNYAIGYDYWGQGTQVTVSS", "polyreactivity (PSR sort gate)": "low polyreactivity"}, {"sequence": "QVQIVESGGGLVQAGGSLRLSCAASGRTFVVNAMGWYRQAPGKERELVASISNKGSTYYADSVKGRFTISRDNAKNTVYLQMNSLNPEDTAVYYCAADEYWSWDGTRYGVHYYYWGQGTQVTVSS", "polyreactivity (PSR sort gate)": "low polyreactivity"}, {"sequence": "QVQIVESGGGLVQAGGSLRLSCAASGRTFWGNAMGWYRQAPGKERELVASISSRGSSTYYADSVKGRFTISRDNAKNTVYLQMNSLKPEDTAVYYCAARTHYFPWPWYVWDYYSDGYWGQGTQVTVSS", "polyreactivity (PSR sort gate)": "low polyreactivity"}, {"sequence": "QVQIVESGGGLVQAGGSLRLSCAASGRTLYQYSMGWYRQAPGKERELVAAITTSTGNTYYADSVKARFTISRDNAKYTVYSQMNSLKPEDTAVYYCAADTVWRLDYWGQGTQVTVSS", "polyreactivity (PSR sort gate)": "low polyreactivity"}, {"sequence": "QVQIVESGGGLVQAGGSLRLSCAASGRTYKYYAMGWYRQAPGKERELDAGITSGSSTSYADSVKGRFTISRDNAKNTVYLQMNSLKPEDTAVYYCAAGIYPYRYDYWGQGTQVTVSS", "polyreactivity (PSR sort gate)": "high polyreactivity"}, {"sequence": "QVQIVESGGGLVQAGGSLRLSCAASGSIFSDYVMGWYRQAPRKERELVATISRGGGSTFYADSVKGRFTISRDYAKITVYLQMNSLKPEDTAVYYCAAPPGPSGAKYDYWGQGTQVSVSS", "polyreactivity (PSR sort gate)": "low polyreactivity"}, {"sequence": "QVQIVESGGGLVQAGGSLRLSCAASGSIFVNNAMGWYRQAPGKVRELVARISFSGGSTYYADSVKGRFTISRDNAKNTVYLQMISLNPEDTAVYYCAKTVLRTESGWWIKFDYWGQVTQVTVSS", "polyreactivity (PSR sort gate)": "low polyreactivity"}, {"sequence": "QVQIVESGGGLVQAGGSLRLSCAASGSIFYYYAMGWYRQAPGNERELVADISISGGSTYYADSVKGRFTISRDTAKNTVYLQMNSQKPEDTAVYYSAATSTYRSYLEYDYWGQGTQVTVSS", "polyreactivity (PSR sort gate)": "low polyreactivity"}, {"sequence": "QVQIVESGGGLVQAGGSLRLSCAASGSISVPYGMGWYRQAPGKERELVAAISGGSTNYADSVKGRFTISRDNAKNTVYLQMNSLKPEDTAVYFCAADWWAWYTRYDYWGQGSQVTVSS", "polyreactivity (PSR sort gate)": "low polyreactivity"}, {"sequence": "QVQIVESGGGLVQAGGSLRLSCAASGSTFPWYVMGWYRQAPGKERELVAAISWSGGRTYYADSVKGRFTISRDNAKNTVYLQMTRLKPEDRAVYYCAAEFKLVSHTYYYWGQGTQVTVSS", "polyreactivity (PSR sort gate)": "low polyreactivity"}, {"sequence": "QVQIVESGGGLVQAGGSLRLSCAASGSTFSYNAMGWYRQAPGKERELVATISNTDSTNYADSVKGRFTISRDNAKNTLYLQMNSLKPEDTSVYSCAAVVSTVDGMEYWGQGTQVNVSS", "polyreactivity (PSR sort gate)": "low polyreactivity"}, {"sequence": "QVQIVESGGGLVQAGGSLRLSCAASGSTFVDYDMGWYRQAPGKERELVAGITTGGSTNYADSVKGRFTISRDNAKNTVYLQMNRLKPEDTAVYYCAATVYGIYYYGRDRYDYWGQATQVTVSS", "polyreactivity (PSR sort gate)": "low polyreactivity"}, {"sequence": "QVQIVESGGGLVQAGGSLRLSCAASGSTFYPNAMGWYRQAPGKERELVAAISRGTRTKYADSVKGRFTISRDNAKNTVYLQINSLKPEDTAVYYCAADTGKGLDWGQGTHVTVSS", "polyreactivity (PSR sort gate)": "high polyreactivity"}, {"sequence": "QVQIVESGGGLVQAGGSLRLSCAASGYIFYPYTMGWYRQAPVKERQLVAAITWSGSTYYADSVKGRFTISRDNAKNTVYLQMNSLKPEDTAVYYCARESDWWREFPYDYWGHGTQVTVSS", "polyreactivity (PSR sort gate)": "low polyreactivity"}, {"sequence": "QVQIVESGGGLVQAGGSLRLSCAASGYIVRNAMGWYRQAPGKERELVAAISRRGGRTYYADSVKGRFTISRDNAKNTVYLQMHSLKPEDTAVYYCNKLPGTPRSLATGDYWGQGTQVTVSS", "polyreactivity (PSR sort gate)": "high polyreactivity"}, {"sequence": "QVQIVESGGGLVQAGGSLRLSCADSGRTLYRYGMGWYRQAPGKERELVDVIDRGGSTNYADSVKGRFTISRDNAKNTVYLLMNSLKPEDTAVYYCAKRWTAREPWRKGMGYWGQGTQVTVSS", "polyreactivity (PSR sort gate)": "high polyreactivity"}, {"sequence": "QVQIVESGGGLVQAGGSLRLSCAPSGRIFRKYAMGWYRQAPGKERELVAAISVGGGSTRYADSVKGRFTISRDNAKNTVYLQMNSLKPEDTAVYYCAVKWFSGGYDYWGQGTQVNVSS", "polyreactivity (PSR sort gate)": "low polyreactivity"}, {"sequence": "QVQIVESGGGLVQAGGSLRLSCDASGRIFTAYAMGWYRQAPGKERELVAAISSGDSTYYAYSVKGRFSISRDNAKNTLYLQMNSLNPEDTEVYYCATCVYPDFEYDSWGQGTQVTVSA", "polyreactivity (PSR sort gate)": "low polyreactivity"}, {"sequence": "QVQIVESGGGLVQAGGSLRLSCSASGSTFPFYAMGWYRQAPGKERELVAAITRSGSRTYYADSVKGRFTISRDNAKNTVFLQMNSLKPEDTAVYYFAASSTDLYFWGQGTQVTVSS", "polyreactivity (PSR sort gate)": "high polyreactivity"}, {"sequence": "QVQIVESGGGLVQAGGSLRLSWASSGRIFYSNAMGRYRQAPGKERELVAAISYSGDSTYYADSVQGRFTISRDNAKNTGYFQMNSLKPEVTAVYYCAAETYVGEDYWGQGTQETVSS", "polyreactivity (PSR sort gate)": "high polyreactivity"}, {"sequence": "QVQIVESGGGLVQAGGSLRLTCAASGSIFTVYAMGWYRQEPGKERELVAAISSGASTNYADTVKGRFTISRDNATNTVYLQMNSLKPEDTAVYYFAARLYARRLYDYWGQGSQVTVSS", "polyreactivity (PSR sort gate)": "low polyreactivity"}, {"sequence": "QVQIVESGGGLVQAGGSLRLTCAASGSTLTIYARGWYRQAPGKERDLVAAISRSGGRTYYADSVKGRFTISRDYAKNTVYLQMNSLKPEDTAVYYCAARGWSYRSVGYMDYWGQGTQVTVSS", "polyreactivity (PSR sort gate)": "high polyreactivity"}, {"sequence": "QVQIVESGGGLVQAGGSLRLTCAASGYIFTYYAMGWYRQAPWKERDLVAAISGSDGNTYYADSVKGRFTISRDNAKNTVYLQMNSLKPEDTAVYYCAKSGGLTFRSQSYDYWGQGTQVTVSS", "polyreactivity (PSR sort gate)": "low polyreactivity"}, {"sequence": "QVQIVESGGGLVQAGGSLRVSCAASGFTFDENAMGWYRQAPGINYSGASTYYADSVKGRFTISRDNAKNTVYLQMNSVKQDDTAVYYCAAEVVAQMNYWGQGTQVTVSS", "polyreactivity (PSR sort gate)": "low polyreactivity"}, {"sequence": "QVQIVESGGGLVQAGGSLSLSCAASGFIFSVNDMGWYRQAPGKERELVAAISRDSGSKYYADSVKGRFTISRDNAQNSVYLEMISLKPEDTAVYDCNGEGQWVWDPYGVYDDDSYNYWGQGTQVTVSS", "polyreactivity (PSR sort gate)": "low polyreactivity"}, {"sequence": "QVQIVESGGGLVQAGRSLRLSCAASGSTFEFYAMGWYRQAPGKEREFVAGITSSGVTTYYADSVKGRFTISRDNAKYTVYLQMNSLKPVDTAVYYCAATDVVYSWFFLVYIPYDYWGQGTQVTVSS", "polyreactivity (PSR sort gate)": "low polyreactivity"}, {"sequence": "QVQIVESGGGLVQEGGSLRLSCAASGRIFEPYDMGLYRQSPGKERELVAALRCSGGSTYYADSVKGRFTISRDNAKNTVYLQMNSLKPEDTAVYYCAKDAFGWGRVYYYRSGYWGQGTQVTVSS", "polyreactivity (PSR sort gate)": "high polyreactivity"}, {"sequence": "QVQIVESGGGLVQPGCSLRLSCAASGRIFYGYAMGLYRQSPGKERELVAAITSTRGRTYYADSVKGRFTISRDNAKNTFYLQMNSLKPEDSAVYYCAKRGYTRWGLDYWGQGTQVTVSS", "polyreactivity (PSR sort gate)": "high polyreactivity"}, {"sequence": "QVQIVESGGGLVQPGGILRLSCAASGSTSQPYDMGWYRQAPGKEWELVASITKGRITYYADSVKGRFTISRDNAKNTVYLQMNSRKPEDTAVYYCNADNVFEGYDGRSARASYRYYSWGQGTQVTVSS", "polyreactivity (PSR sort gate)": "low polyreactivity"}, {"sequence": "QVQIVESGRGLFQAGGSLRLSCAASGSIFRFNVMGWYRPATGKECELVASISDSGDNTNYADSVKGRFTISGDNAKNPVDLLMNSLKPEDTAVYYCAARGSRWYIAVDYRGQGTQVTVSS", "polyreactivity (PSR sort gate)": "low polyreactivity"}, {"sequence": "QVQIVESGRGLVQAGGSLRLSCAASGLTFARNAMGWSRPAPGKQRELVAAITSGASTTYADSVKGRITISRDNAMNTVSVQMNSLKPEDTAVYYCAAPGYWVRTYGGWSRLDYWGQGTQVTVSS", "polyreactivity (PSR sort gate)": "high polyreactivity"}, {"sequence": "QVQIVESGVGLVQAGGSLSLSCAASGIIIHSNAMGWYRQAPGKERELVAAITSSGGSKYYADSVKGRFTISRDNAKNTVYLQMNSLKPVDTAVYYCAVVTILVYRYVVPYDYWGHGTQVTVSS", "polyreactivity (PSR sort gate)": "high polyreactivity"}, {"sequence": "QVQIVESRGGLVQAGGSLRLSCAASGRILYLYAMGWYRQAPGKERELVARISQRDGSTYYADSVKGRFTISRDNAKNNDYLHMNSLKPEDTAVYYCNAVFSRGSYGYSYDYWGQGTQVTVSS", "polyreactivity (PSR sort gate)": "low polyreactivity"}, {"sequence": "QVQIVESRGGLVQAGGSLSLSCAASGRIFDYYAMGWYRQPPGKERELVAAISSSVGNTYYADSVKGRFTISRDNSKNTVYLQMNSLKPEVTAVYYCADYSYVRSSYEVEYDYWGQGTQVTVSS", "polyreactivity (PSR sort gate)": "low polyreactivity"}, {"sequence": "QVQIVESRVGLVQAGGSLRLSCAASGLTFYYYAMGWYRQAPGKERELVAAIDGSGGITYYEDSLKARFTISRDNEKNTVYLQMNSLKPEDTAVYYCAAERVVGDAYDYWGQGTQVTVSS", "polyreactivity (PSR sort gate)": "high polyreactivity"}, {"sequence": "QVQIVETGGGLVQAGGSLRLSCDASGSIFPDYAKGWYRQAPRKERELLASISWDGGSTYYADSVKGRFTISRDNAKNTVYLQMNSLKPEDTAVYYCATEWLVGGGVTVDYWGQGTQVSVSS", "polyreactivity (PSR sort gate)": "low polyreactivity"}, {"sequence": "QVQLAESGAGLVQAGGSLRLSCAASGFTFFPYAMGWYIQAPGKERELVAGITYNGGSTYYADSVKGRFTISRDNAKNTVYLQMNSLKPEDTAVYYCNAGRIGGFDWGQGTQVTVSS", "polyreactivity (PSR sort gate)": "low polyreactivity"}, {"sequence": "QVQLAESGGGLVQAGGSLRLSCSASGSTFVAYAMGWYRQAPGKERELVAAITRSGGSTYYADSVKGRFTISRDNAKNTVYLQMNSLKPEDTAVFYCAARHYRSRDGYWGQGTQVTVSS", "polyreactivity (PSR sort gate)": "high polyreactivity"}, {"sequence": "QVQLDESGGRLVQAGGSLRLSCAASGSIFKVNAMGWYRQAPGKERELVAVISKRGGSTYYADSVKGRFTISRDHAKNTVYLQMNSLKPEDTAVYYCAAGKAPPSLRWVARIGKYEYWGQGTQVTVSS", "polyreactivity (PSR sort gate)": "low polyreactivity"}, {"sequence": "QVQLEDSGGGLFQAGGSLRLSCAASGNTFPVSYTMGWYIQAHRKEREFVAAISKDGGRTYYADSVKGRFTISRDNAKNTVYLQMNSLKPEDTAVYYCAARYSSSRGLSSEYWGQCTQVTVSS", "polyreactivity (PSR sort gate)": "high polyreactivity"}, {"sequence": "QVQLEDSGGGLVQAGGSLPLSCAASGSIFVQYDMGWYIQAPGKERELVAAINDSGDITYYADSVKARFTISRDNAKNTIYLQMNSLKPEDTAVYYCAASAAYYGFYKSVTYDYWGQGTQVTVSS", "polyreactivity (PSR sort gate)": "low polyreactivity"}, {"sequence": "QVQLEDSGGGLVQAGGSLRLICAASGSIIGTKAMGWYRQAPGKERELVAAIHWSGGTTYYADSVKGRFTISRDNAKNTVYFQMNSLKPDDTPVYDCATVFFVLPPTRFDAWGQGTLVTVSS", "polyreactivity (PSR sort gate)": "low polyreactivity"}]}]}
